Measurements taken from article PMC10241002 (Autophagy, 2022).
Numbering of substitutions follows the chain as printed. Numbers in names are those of the source.

B1: Atg9-GFP (purified, GFP-3xFLAG fusion) (natural protein, S. cerevisiae, UniProt Q12142 1-997, looked up)
chain: MERDEYQLPNSHGKNTFLSRIFGLQSDEVNPSLNSQEMSNFPLPDIERGSSLLHSTNDSREDVDENDLRVPESDQGTSTEEEDEVDEEQVQAYAPQISDGLDGDHQLNSVTSKENVLETEKSNLERLVEGSTDDSVPKVGQLSSEEEEDNEFINNDGFDDDTPLFQKSKIHEFSSKKSNTIEDGKRPLFFRHILQNNRPQRDTQKLFTSSNAIHHDKDKSANNGPRNINGNQKHGTKYFGSATQPRFTGSPLNNTNRFTKLFPLRKPNLLSNISVLNNTPEDRINTLSVKERALWKWANVENLDIFLQDVYNYYLGNGFYCIILEKILNICTLLFVVFVSTYMGHCVDYSKLPTSHRVSDIIIDKCYSNSITGFTKFFLWMFYFFVILKIVQLYFDVQKLSELQNFYKYLLNISDDELQTLPWQNVIQQLMYLKDQNAMTANVVEVKAKNRIDAHDVANRIMRRENYLIALYNSDILNLSLPIPLFRTNVLTKTLEWNINLCVMGFVFNESGFIKQSILKPSQREFTREELQKRFMLAGFLNIILAPFLVTYFVLLYFFRYFNEYKTSPGSIGARQYTPIAEWKFREYNELYHIFKKRISLSTTLANKYVDQFPKEKTNLFLKFVSFICGSFVAILAFLTVFDPENFLNFEITSDRSVIFYITILGAIWSVSRNTITQEYHVFDPEETLKELYEYTHYLPKEWEGRYHKEEIKLEFCKLYNLRIVILLRELTSLMITPFVLWFSLPSSAGRIVDFFRENSEYVDGLGYVCKYAMFNMKNIDGEDTHSMDEDSLTKKIAVNGSHTLNSKRRSKFTAEDHSDKDLANNKMLQSYVYFMDDYSNSENLTGKYQLPAKKGYPNNEGDSFLNNKYSWRKQFQPGQKPELFRIGKHALGPGHNISPAIYSTRNPGKNWDNNNNGDDIKNGTNNATAKNDDNNGNNDHEYVLTESFLDSGAFPNHDVIDHNKMLNSNYNGNGILNKGGVLGLVKEYYKKSDVGR
B2: Atg9^F627A-GFP (purified, GFP-3xFLAG fusion) (natural protein, S. cerevisiae, UniProt Q12142 1-997, looked up)
chain: B1 chain with F627A

Molecular target: the molecule itself
Assay: single-molecule fluorescence stoichiometry analysis

Row | Protein | binding result | stoichiometry N
1 | B1 | binds | 
2 | B2 |  | 3
